For the series, the target named is PARP-1 (human, UniProt P09874 1-1014). The experiment in a line: EMSA; 5 and 30 uM NAD+; remains bound; EMSA: 20 mM Na-HEPES pH 7.5, 0.1 mM DTT, 0.05% Triton X-100, 100 ug/mL BSA, 5 mM MgCl2, 2 mM ATP, 100 nM DNA, 37 C 10 min, then 0.2% glutaraldehyde 15 min; DNA. The settings on record: protein: recombinant; label: 32P; blunt. On the technique in general: A gel shift assay detects complexes by their altered migration in electrophoresis.

The results in this text go back to paper PMC6609622, “Poly(ADP-ribose) polymerase-1 antagonizes DNA resection at double-strand breaks”.

PARP-1, sequence (P09874 whole entry): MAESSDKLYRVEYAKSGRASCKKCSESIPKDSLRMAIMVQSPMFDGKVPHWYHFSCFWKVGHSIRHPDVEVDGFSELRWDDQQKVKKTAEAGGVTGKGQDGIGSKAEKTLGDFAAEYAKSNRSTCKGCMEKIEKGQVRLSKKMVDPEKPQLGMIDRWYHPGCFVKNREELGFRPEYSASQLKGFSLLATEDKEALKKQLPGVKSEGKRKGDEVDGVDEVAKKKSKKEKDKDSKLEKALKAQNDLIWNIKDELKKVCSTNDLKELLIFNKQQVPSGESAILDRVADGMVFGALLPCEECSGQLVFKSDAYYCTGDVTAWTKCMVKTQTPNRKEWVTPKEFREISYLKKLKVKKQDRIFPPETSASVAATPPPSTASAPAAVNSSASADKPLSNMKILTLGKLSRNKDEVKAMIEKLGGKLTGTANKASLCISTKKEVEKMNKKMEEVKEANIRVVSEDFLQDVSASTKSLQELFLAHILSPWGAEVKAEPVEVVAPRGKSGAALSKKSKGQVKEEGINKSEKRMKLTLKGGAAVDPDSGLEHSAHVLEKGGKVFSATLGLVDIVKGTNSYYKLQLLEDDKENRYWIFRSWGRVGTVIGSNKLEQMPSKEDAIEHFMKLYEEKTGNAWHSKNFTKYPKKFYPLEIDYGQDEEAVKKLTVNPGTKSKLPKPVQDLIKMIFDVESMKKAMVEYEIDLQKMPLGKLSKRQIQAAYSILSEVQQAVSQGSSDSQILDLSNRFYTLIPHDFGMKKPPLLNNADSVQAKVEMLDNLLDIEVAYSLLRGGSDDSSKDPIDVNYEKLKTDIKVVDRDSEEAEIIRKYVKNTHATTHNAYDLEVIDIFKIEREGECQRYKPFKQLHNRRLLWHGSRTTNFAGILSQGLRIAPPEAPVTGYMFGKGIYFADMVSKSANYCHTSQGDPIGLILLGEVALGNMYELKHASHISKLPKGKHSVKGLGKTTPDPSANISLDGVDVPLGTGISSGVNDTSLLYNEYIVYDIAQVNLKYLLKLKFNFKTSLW

B1: JYM696/JYM698 (dsDNA)
DNA 1: GGGCGAATTGGGCCCGACGTCGCATGCTCCTCTAGACTCGAGGAATTCGGTACCCCGGGTTCGAAATCGATAAGCTTACAGTCTCCATTTAAAGGACAAG
DNA 2: CTTGTCCTTTAAATGGAGACTGTAAGCTTATCGATTTCGAACCCGGGGTACCGAATTCCTCGAGTCTAGAGGAGCATGCGACGTCGGGCCCAATTCGCCC
For the molecule B1, the binding result is recorded as “binds”.
